Reference: patent publication US20260335397A1, “TREATMENT OF GEOGRAPHIC ATROPHY” (Apellis Pharmaceuticals, Inc., priority 2022, published 2026)

Key:
Format in all cases: in vivo, human
[1] = system: geographic atrophy (GA) secondary to age-related macular degeneration (AMD); experiment: Post hoc microperimetry perilesional analysis, OAKS study; conditions: 24 months
Description: LS means estimated from MMRM analysis. […] Perilesional area defined as −250 μm inside baseline atrophy border to +250 μm outside atrophy border. dB=decibel; LS=least square; M=month; mITT=modified intent-to-treat; MMRM=mixed-effects model for repeated measures; PEOM=pegcetacoplan every other month; PM=pegcetacoplan monthly; SE=standard error.
A post hoc microperimetry perilesional analysis was performed on patients in the OAKS study to assess whether pegcetacoplan preservation of retinal tissue was reflected in preserved photoreceptor function in retina near GA lesion borders at baseline. Geographic atrophy lesion borders grow at approximately 100-150 microns per year. An assessment was performed of visual function of cells within 250 microns on either side of the lesion border, which are at the highest risk of permanently losing visual function as lesions expand. Reduction of retinal sensitivity as measured by microperimetry reflects loss of function.
Perilesional area (area within 250 microns of each side of GA lesion border) was created on fundus autofluorescence for each patient, and microperimetry endpoints were assessed within this region (68 spots on grid). In this analysis, approximately 21-22 points (out of 68 total—about one-third) qualified as “peri-lesional” using the 500 micron zone definition (250 inside and 250 outside of GA lesion border). A representative image is depicted as FIG. 5. […] Patients in both monthly (0.564 dB; p=0.0650) and every-other-month (EOM) (0.707 dB; p=0.0202) pegcetacoplan treatment groups lost less retinal sensitivity compared to the sham group over 24 months with increasing effects over time. Scotomatous points measure areas of the retina that have lost all light sensitivity and therefore are no longer functioning. Patients in both monthly (−0.680 points; p=0.1444) and EOM (−1.138 points; p=0.0140) pegcetacoplan treatment groups had fewer new scotomatous points compared to sham over 24 months with increasing effects over time.

[2] = system: geographic atrophy (GA) secondary to age-related macular degeneration (AMD); experiment: Post-hoc analysis of time to foveal light insensitivity, 4 central points of MAIA grid, OAKS study
Description: This Example describes a post-hoc analysis of results from the OAKS study described in Example 1 that was performed in order to assess the effect of pegcetacoplan monthly (PM) or every other month (PEOM) vs sham treatment in delaying occurrence of foveal insensitivity measured by the 4 most centrally located stimulus points of the MAcular Integrity Assessment (MAIA) grid. Absolute scotomatous points of −1 dB were considered present when a reaction was not evoked by the brightest possible light stimulus.
Light insensitivity was defined as absence of response to −1 dB at the stimulus point. For the time-to-event analysis, a foveal light insensitivity event was defined as the first light insensitivity (−1 dB) occurring at all 4 central stimuli. Events were measured at the exact date of a patient visit and depicted via Kaplan-Meier plots. A Cox proportional hazards model was applied factoring treatment, choroidal neovascularisation in the fellow eye, baseline GA lesion area, and baseline number of central 4 scotomatous points (categorical). Hazard ratios (HRs) of PM and PEOM were estimated.

[3] = Phase 3 safety: TEAEs and tolerability, OAKS and DERBY; conditions: for Endophthalmitis (serious ocular TEAE), % / Endophthalmitis (serious ocular TEAE), M (number of events): infectious and non-infectious
Description: All randomized subjects returned every month to the clinical site for assessments and additional pegcetacoplan or sham injections according to their randomization scheme until Month 12. From Month 12 onwards, subjects return to the clinical site based on their randomized treatment schedule (monthly or EOM) and follow the treatment regimen and assessments outlined in the Visit Schedule until Month 24. Safety was assessed throughout the study by a number of evaluations including: monitoring of AEs, preinjection and postinjection monitoring, blood and urine samples collected, physical examination, vital signs, and follow-up phone calls. Blood samples were also be collected for anti-therapeutic antibodies, genotyping, and clinical repository (if the subject consented to this portion).
Safety endpoints included incidence and severity of ocular and systemic treatment-emergent adverse events; incidence of ADA directed against pegcetacoplan peptide or PEG; incidence of new active CNV in the study eye; incidence of new onset of subclinical CNV in the study eye; incidence of subjects who lost letters based on NL-BCVA categories (≥15, ≥15-<30, ≥30 ETDRS letters); change/shift from baseline in clinical labs and incidence of abnormal lab values; change from baseline in vital signs and incidence of abnormal vital sign results; shift from baseline in ocular examination assessments including slit-lamp examination and indirect ophthalmoscopy; change from baseline in Intra Ocular Pressure (IOP) and incidence of IOP above specified thresholds; and change/shift from baseline in ocular imaging assessments (including specular microscopy; select sites).
The Safety set consisted of all subjects randomized who received at least one injection of pegcetacoplan or sham. Subjects were analyzed according to the actual treatment received. […] This population was used for all safety analyses.

[4] = DERBY, PEOM (N = 208), 24 months
[5] = OAKS, PEOM (N = 212), 24 months

Poly(oxy-1,2-ethanediyl), α-hydro-ω-hydroxy-, 15,15′-diester with N-acetyl-L-isoleucyl-L-cysteinyl-L-valyl-1-methyl-L-tryptophyl-L-glutaminyl-L-α-aspartyl-L-tryptophylglycyl-L-alanyl-L-histidyl-L-arginyl-L-cysteinyl-L-threonyl-2-[2-(2-aminoethoxy)ethoxy]acetyl-N^6-carboxy-L-lysinamide cyclic (2->12)-(disulfide) [pegcetacoplan]
microperimetry measures, perilesional ([1]; all p-values nominal): positive trends in microperimetry measures | new scotomatous points (perilesional) compared to sham ([1]; EOM, p=0.0140 (nominal)): −1.138 points | less loss of retinal sensitivity (perilesional mean threshold sensitivity) compared to sham ([1]; every-other-month (EOM), p=0.0202 (nominal)): 0.707 dB | less loss of retinal sensitivity (perilesional mean threshold sensitivity) compared to sham ([1]; monthly, p=0.0650 (nominal)): 0.564 dB | new scotomatous points (perilesional) compared to sham ([1]; monthly, p=0.1444 (nominal)): −0.680 points | HR, occurrence of foveal light insensitivity vs sham ([2]; PEOM, 95% CI: 0.45, 0.92, p=0.0164): 0.64 | Conversion of all 4 central points to scotoma in the study eye, patients ([2]; PEOM, n=152, 24 months): 59 patients | Conversion of all 4 central points to scotoma in the study eye, percent of patients ([2]; PEOM, n=152, 24 months): 38.8% | onset of foveal light insensitivity / loss of foveal light sensitivity ([2]; PM and PEOM, twenty-four-month data): Meaningful delays in loss of foveal light sensitivity | HR, occurrence of foveal light insensitivity vs sham ([2]; PM, 95% CI: 0.46, 0.96, p=0.0282): 0.66 | Conversion of all 4 central points to scotoma in the study eye, patients ([2]; PM, n=155, 24 months): 54 patients | Conversion of all 4 central points to scotoma in the study eye, percent of patients ([2]; PM, n=155, 24 months): 34.8% | All TEAEs, % [3, 4]: (86.5%) | Iridocyclitis (serious ocular TEAE), % [3, 4]: 0.5% | Iridocyclitis (serious ocular TEAE), M (number of events) [3, 4]: 1 M | Non-ocular TEAEs, patients, % [3, 4]: (68.3%) | Ocular TEAEs in study eye, patients, % [3, 4]: (51.9%) | Serious ocular TEAEs in the study eye, % [3, 4]: 1.0% | Serious ocular TEAEs in the study eye, M (number of events) [3, 4]: 4 M | Uveitis (serious ocular TEAE), % [3, 4]: 1.0% | Uveitis (serious ocular TEAE), M (number of events) [3, 4]: 2 M | Visual acuity reduced (serious ocular TEAE), % [3, 4]: 0.5% | Visual acuity reduced (serious ocular TEAE), M (number of events) [3, 4]: 1 M | All TEAEs, % ([3]; DERBY, PM (N = 206), 24 months): (86.4%) | Non-ocular TEAEs, patients, % ([3]; DERBY, PM (N = 206), 24 months): (79.1%) | Ocular TEAEs in study eye, patients, % ([3]; DERBY, PM (N = 206), 24 months): (60.7%) | Optic ischemic neuropathy (serious ocular TEAE), % ([3]; DERBY, PM (N = 206), 24 months): 0.5% | Optic ischemic neuropathy (serious ocular TEAE), M (number of events) ([3]; DERBY, PM (N = 206), 24 months): 1 M | Retinal tear (serious ocular TEAE), % ([3]; DERBY, PM (N = 206), 24 months): 0.5% | Retinal tear (serious ocular TEAE), M (number of events) ([3]; DERBY, PM (N = 206), 24 months): 1 M | Serious ocular TEAEs in the study eye, % ([3]; DERBY, PM (N = 206), 24 months): 1.9% | Serious ocular TEAEs in the study eye, M (number of events) ([3]; DERBY, PM (N = 206), 24 months): 4 M | Vitritis (serious ocular TEAE), % ([3]; DERBY, PM (N = 206), 24 months): 1.0% | Vitritis (serious ocular TEAE), M (number of events) ([3]; DERBY, PM (N = 206), 24 months): 2 M | All TEAEs, % [3, 5]: (88.2%) | Non-ocular TEAEs, patients, % [3, 5]: (77.8%) | Ocular TEAEs in study eye, patients, % [3, 5]: (58.0%) | Retinal detachment (serious ocular TEAE), % [3, 5]: 0.5% | Retinal detachment (serious ocular TEAE), M (number of events) [3, 5]: 1 M | Serious ocular TEAEs in the study eye, % [3, 5]: 1.9% | Serious ocular TEAEs in the study eye, M (number of events) [3, 5]: 4 M | Endophthalmitis (serious ocular TEAE), % [3, 5]: 1.4% | Endophthalmitis (serious ocular TEAE), M (number of events) [3, 5]: 3 M | All TEAEs, % ([3]; OAKS, PM (N = 213), 24 months): (90.1%) | Hyphema (serious ocular TEAE), % ([3]; OAKS, PM (N = 213), 24 months): 0.5% | Hyphema (serious ocular TEAE), M (number of events) ([3]; OAKS, PM (N = 213), 24 months): 1 M | Non-ocular TEAEs, patients, % ([3]; OAKS, PM (N = 213), 24 months): (81.7%) | Ocular TEAEs in study eye, patients, % ([3]; OAKS, PM (N = 213), 24 months): (62.4%) | Optic ischemic neuropathy (serious ocular TEAE), % ([3]; OAKS, PM (N = 213), 24 months): 0.9% | Optic ischemic neuropathy (serious ocular TEAE), M (number of events) ([3]; OAKS, PM (N = 213), 24 months): 2 M | Papilledema (serious ocular TEAE), % ([3]; OAKS, PM (N = 213), 24 months): 0.5% | Papilledema (serious ocular TEAE), M (number of events) ([3]; OAKS, PM (N = 213), 24 months): 1 M | Retinal detachment (serious ocular TEAE), % ([3]; OAKS, PM (N = 213), 24 months): 0.5% | Retinal detachment (serious ocular TEAE), M (number of events) ([3]; OAKS, PM (N = 213), 24 months): 1 M | Serious ocular TEAEs in the study eye, % ([3]; OAKS, PM (N = 213), 24 months): 2.3% | Serious ocular TEAEs in the study eye, M (number of events) ([3]; OAKS, PM (N = 213), 24 months): 7 M | Endophthalmitis (serious ocular TEAE), % ([3]; OAKS, PM (N = 213), 24 months): 0.9% | Endophthalmitis (serious ocular TEAE), M (number of events) ([3]; OAKS, PM (N = 213), 24 months): 2 M | tolerability ([3]; both Phase 3 studies): well tolerated
